Experimental data: patent US20020058275A1, “Compositions, kits, and methods for effecting adenine nucleotide modulation of DNA mismatch recognition proteins” (Thomas Jefferson University, priority 1997, published 2002)

Target: T1, IVTT-hMSH4 (Homo sapiens, UniProt O15457)
T1 construct: made in house; host or cells: in vitro transcription/translation, TNT coupled reticulocyte lysate (Promega), insert in pCR 2.1
T1 sequence (O15457 1-936): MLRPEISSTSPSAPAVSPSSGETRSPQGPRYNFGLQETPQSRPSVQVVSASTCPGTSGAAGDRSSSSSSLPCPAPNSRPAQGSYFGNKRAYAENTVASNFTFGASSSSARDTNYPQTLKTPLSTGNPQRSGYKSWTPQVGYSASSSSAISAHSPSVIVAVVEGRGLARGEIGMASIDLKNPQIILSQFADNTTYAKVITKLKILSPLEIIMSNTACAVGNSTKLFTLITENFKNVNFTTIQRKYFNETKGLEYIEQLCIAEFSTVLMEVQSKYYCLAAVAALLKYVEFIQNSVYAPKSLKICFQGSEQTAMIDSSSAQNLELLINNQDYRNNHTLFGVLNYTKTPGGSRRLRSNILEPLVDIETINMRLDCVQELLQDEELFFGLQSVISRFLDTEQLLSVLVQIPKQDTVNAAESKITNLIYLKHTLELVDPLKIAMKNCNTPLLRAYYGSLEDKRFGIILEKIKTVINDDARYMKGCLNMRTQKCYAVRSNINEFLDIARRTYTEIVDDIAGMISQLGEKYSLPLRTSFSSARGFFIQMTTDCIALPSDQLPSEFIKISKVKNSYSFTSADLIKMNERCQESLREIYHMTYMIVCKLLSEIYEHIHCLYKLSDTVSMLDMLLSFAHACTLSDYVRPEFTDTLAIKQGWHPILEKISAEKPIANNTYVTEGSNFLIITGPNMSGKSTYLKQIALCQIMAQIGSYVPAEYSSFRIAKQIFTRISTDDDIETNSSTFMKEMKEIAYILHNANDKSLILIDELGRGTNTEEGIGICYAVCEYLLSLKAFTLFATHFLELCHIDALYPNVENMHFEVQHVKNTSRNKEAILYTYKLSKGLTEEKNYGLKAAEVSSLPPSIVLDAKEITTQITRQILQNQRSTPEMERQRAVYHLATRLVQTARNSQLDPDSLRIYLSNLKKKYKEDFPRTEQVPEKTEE
Assay: GST fusion protein interaction assay
Type: binding
Conditions: GST fusion protein as bait
Protocol: 500 microliters taken from a 5 milliliter overnight starter culture of cells which expressed an hMSH2-, hMSH3-, hMSH5-, or hMSH6-pGEX-fusion protein with (or non-fused pGEX as a negative control) was inoculated into 50 milliliters of Luria broth which contained 50 micrograms per milliliter ampicillin, and this culture was grown until the optical density at 600 nanometers was about 0.5. Protein expression was induced by addition of 0.1 millimolar (final concentration) IPTG for 2 hours at 30° C. Cells were pelleted and resuspended in 750 microliters of phosphate buffered saline containing protease inhibitors. A 10 minute digestion on ice using 1 milligram per milliliter lysozyme was then performed. After the addition of 0.2% (v/v) Triton X-100 and 1 millimolar dithiothreitol (final concentrations), the lysate was snap-frozen in liquid nitrogen and thawed twice. DNaseI (200 units per milliliter; Boehringer Mannheim, Germany) digestion was performed using the thawed lysate for 30 minutes on ice, after which cell debris was removed by centrifugation at 14,000 rpm at 4° C. for 30 minutes in a benchtop microfuge. […]

interaction with IVTT-hMSH4: significant interaction
B1: hMSH5: human MutS homolog, putative 834-amino-acid protein encoded by clone b29 (SEQ ID NO: 29) (protein)
chain: MASLGANPRRTPQGPRPGAASSGFPSPAPVPGPREAEEEEVEEEEELAEIHLCVLWNSGYLGIAYYDTSDSTIHFMPDAPDHESLKLLQRVLDEINPQSVVTSAKQDENMTRFLGKLASQEHREPKRPEIIFLPSVDFGLEISKQRLLSGNYSFIPDAMTATEKILFLSSIIPFDCLLTVRALGGLLKFLGRRRIGVELEDYNVSVPILGFKKFMLTHLVNIDQDTYSVLQIFKSESHPSVYKVASGLKEGLSLFGILNRCHCKWGEKLLRLWFTRPTHDLGELSSRLDVIQFFLLPQNLDMAQMLHRLLGHIKNVPLILKRMKLSHTKVSDWQVLYKTVYSALGLRDACRSLPQSIQLFRDIAQEFSDDLHHIASLIGKVVDFEGSLAENRFTVLPNIDPEIDEKKRRLMGLPSFLTEVARKELENLDSRIPSCSVIYIPLIGFLLSIPRLPSMVEASDFEINGLDFMFLSEEKLHYRSARTKELDALLGDLHCEIRDQETLLMYQLQCQVLARAAVLTRVLDLASRLDVLLALASAARDYGYSRPRYSPQVLGVRIQNGRHPLMELCARTFVPNSTECGGDKGRVKVITGPNSSGKSIYLKQVGLITFMALVGSFVPAEEAEIGAVDAIFTRIHSCESISLGLSTFMIDLNQVAKAVNNATAQSLVLIDEFGKGTNTVDGLALLAAVLRHWLARGPTCPHIFVATNFLSLVQLQLLPQGPLVQYLTMETCEDGNDLVFFYQVCEGVAKASHASHTAAQAGLPDKLVARGKEVSDLIRSGKPIKPVKDLLKKNQMENCQTLVDKFMKLDLEDPNLDLNVFMSQEVLPAATSIL
modifications: left off: a dimerising Fc or GST; large carriers; small tags and cut ends
